The text below walks through data of the RNAGym collection of RNA variant scans (doi:10.1093/molbev/msab373).

The labels stand for the following.
B1: Azoarcus group I ribozyme (parent)
chain: GUGCCUUGCGCCGGGAAACCACGCAAGGGAUGGUGUCAAAUUCGGCGAAACCUAAGCGCCCGCCCGGGCGUAUGGCAACGCCGAGCCAAGCUUCGGCGCCUGCGCCGAUGAAGGUGUAGAGACUAGACGGCACCCACCUAAGGCAAACGCUAUGGUGAAGGCAUAGUCCAGGGAGUGGCGAAAGUCACACAAACCGG

The variants in this data set derive from B1. Description: reverse-splicing fitness (ratio to wild type); higher = more active; in vitro selection; Mg2+ level not given. The procedure, abridged: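 An in vitro group I ribozyme library with randomized positions was T7-transcribed and gel-purified. In triplicate, 10 pmol RNA in EPPS pH 7.5 was reacted with 50 pmoles of a 30-nt RNA substrate for 1 h at 37 °C across several added MgCl2 levels (1–48 mM), then stopped with EDTA. Products were reverse transcribed from a substrate-complementary primer, PCR-amplified and sequenced (HiSeq 4000). Fitness is a variant's read proportion after selection over that before, normalised to wild type.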
As to GUGCCUUGCGCCGGGAAACCACGCAAGGGAUGGUGUCAAAUUCGGCGAAACCUAAGCGCCCGCCCGGGCGUAUGGCAACGCUGAGCCAAGCUUCGGCGCCUGCGCCGAUGCAGGUGUAGUGACUAGACGGCACCCACCUAAGGCCAACGUUAUGGUGAAGGCAUAGUCAAGGGAGUGGCGAAAGUCACACAAACCGG [C82U A111C A120U A145C C150U C169A], the reverse-splicing fitness is 0.00253.
The value for GUGCCUUGCGCCGGGAAACCACGCAAGGGAUGGUGUCAAAUUCGGCGAAACCUAAGCGCCCGCCCGGGCGUAUGGCAACGCCGAGCCAAGCUUCGGCGCCUGCGCCGAUGAAGGUGUAGUGACUAGACGGCACCCACCUAAGGCGAACGCUAUGGUGAAGGCAUAGUCAAGGGAGAGGCGAAAGUCACACAAACCGG [A120U A145G C169A U176A] was 0.00474; that for GUGCCUUGCGCCGGGAAACCACGCAAGGGAUGGUGUCAAAUUCGGCGAAACCUAAGCGCCCGCCCGGGCGUAUGGCAACGCGGAGCCAAGCUUCGGCGCCUGCGCCGAUGCAGGUGUAGUGACUAGACGGCACCCACCUAAGGCGAACGAUAUGGUGAAGGCAUAGUCCAGGGAGGGGCGAAAGUCACACAAACCGG [C82G A111C A120U A145G C150A U176G] was 0.00353.
Consider GUGCCUUGCGCCGGGAAACCACGCAAGGGAUGGUGUCAAAUUCGGCGAAACCUAAGCGCCCGCCCGGGCGUAUGGCAACGCCGAGCCAAGCUUCGGCGCCUGCGCCGAUGGAGGUGUAGUGACUAGACGGCACCCACCUAAGGCCAACGGUAUGGUGAAGGCAUAGUCAAGGGAGUGGCGAAAGUCACACAAACCGG [A111G A120U A145C C150G C169A], for which the reverse-splicing fitness turned out to be 0.00293.
Take GUGCCUUGCGCCGGGAAACCACGCAAGGGAUGGUGUCAAAUUCGGCGAAACCUAAGCGCCCGCCCGGGCGUAUGGCAACGCUGAGCCAAGCUUCGGCGCCUGCGCCGAUGAAGGUGUAGAGACUAGACGGCACCCACCUAAGGCGAACGAUAUGGUGAAGGCAUAGUCUAGGGAGAGGCGAAAGUCACACAAACCGG [C82U A145G C150A C169U U176A]: the reverse-splicing fitness was found to be 0.0137.
In the case of GUGCCUUGCGCCGGGAAACCACGCAAGGGAUGGUGUCAAAUUCGGCGAAACCUAAGCGCCCGCCCGGGCGUAUGGCAACGCUGAGCCAAGCUUCGGCGCCUGCGCCGAUGUAGGUGUAGGGACUAGACGGCACCCACCUAAGGCCAACGCUAUGGUGAAGGCAUAGUCAAGGGAGUGGCGAAAGUCACACAAACCGG [C82U A111U A120G A145C C169A], the reverse-splicing fitness worked out at 0.007.
The value for GUGCCUUGCGCCGGGAAACCACGCAAGGGAUGGUGUCAAAUUCGGCGAAACCUAAGCGCCCGCCCGGGCGUAUGGCAACGCGGAGCCAAGCUUCGGCGCCUGCGCCGAUGCAGGUGUAGAGACUAGACGGCACCCACCUAAGGCCAACGCUAUGGUGAAGGCAUAGUCUAGGGAGCGGCGAAAGUCACACAAACCGG [C82G A111C A145C C169U U176C] was 0.016; that for GUGCCUUGCGCCGGGAAACCACGCAAGGGAUGGUGUCAAAUUCGGCGAAACCUAAGCGCCCGCCCGGGCGUAUGGCAACGCGGAGCCAAGCUUCGGCGCCUGCGCCGAUGUAGGUGUAGAGACUAGACGGCACCCACCUAAGGCCAACGCUAUGGUGAAGGCAUAGUCUAGGGAGAGGCGAAAGUCACACAAACCGG [C82G A111U A145C C169U U176A] was 0.014; that for GUGCCUUGCGCCGGGAAACCACGCAAGGGAUGGUGUCAAAUUCGGCGAAACCUAAGCGCCCGCCCGGGCGUAUGGCAACGCUGAGCCAAGCUUCGGCGCCUGCGCCGAUGGAGGUGUAGUGACUAGACGGCACCCACCUAAGGCGAACGCUAUGGUGAAGGCAUAGUCUAGGGAGCGGCGAAAGUCACACAAACCGG [C82U A111G A120U A145G C169U U176C] was 0.00362.
In the case of GUGCCUUGCGCCGGGAAACCACGCAAGGGAUGGUGUCAAAUUCGGCGAAACCUAAGCGCCCGCCCGGGCGUAUGGCAACGCAGAGCCAAGCUUCGGCGCCUGCGCCGAUGAAGGUGUAGCGACUAGACGGCACCCACCUAAGGCUAACGUUAUGGUGAAGGCAUAGUCGAGGGAGUGGCGAAAGUCACACAAACCGG [C82A A120C A145U C150U C169G] it was 0.0103; in that of GUGCCUUGCGCCGGGAAACCACGCAAGGGAUGGUGUCAAAUUCGGCGAAACCUAAGCGCCCGCCCGGGCGUAUGGCAACGCUGAGCCAAGCUUCGGCGCCUGCGCCGAUGUAGGUGUAGGGACUAGACGGCACCCACCUAAGGCGAACGGUAUGGUGAAGGCAUAGUCGAGGGAGGGGCGAAAGUCACACAAACCGG [C82U A111U A120G A145G C150G C169G U176G], 0.00498; in that of GUGCCUUGCGCCGGGAAACCACGCAAGGGAUGGUGUCAAAUUCGGCGAAACCUAAGCGCCCGCCCGGGCGUAUGGCAACGCCGAGCCAAGCUUCGGCGCCUGCGCCGAUGGAGGUGUAGCGACUAGACGGCACCCACCUAAGGCGAACGAUAUGGUGAAGGCAUAGUCUAGGGAGAGGCGAAAGUCACACAAACCGG [A111G A120C A145G C150A C169U U176A], 0.0243.
The value for GUGCCUUGCGCCGGGAAACCACGCAAGGGAUGGUGUCAAAUUCGGCGAAACCUAAGCGCCCGCCCGGGCGUAUGGCAACGCUGAGCCAAGCUUCGGCGCCUGCGCCGAUGGAGGUGUAGCGACUAGACGGCACCCACCUAAGGCUAACGUUAUGGUGAAGGCAUAGUCAAGGGAGGGGCGAAAGUCACACAAACCGG [C82U A111G A120C A145U C150U C169A U176G] was 0.00488.
With GUGCCUUGCGCCGGGAAACCACGCAAGGGAUGGUGUCAAAUUCGGCGAAACCUAAGCGCCCGCCCGGGCGUAUGGCAACGCUGAGCCAAGCUUCGGCGCCUGCGCCGAUGCAGGUGUAGGGACUAGACGGCACCCACCUAAGGCCAACGUUAUGGUGAAGGCAUAGUCGAGGGAGAGGCGAAAGUCACACAAACCGG [C82U A111C A120G A145C C150U C169G U176A], the reverse-splicing fitness is 0.0181.
The value for GUGCCUUGCGCCGGGAAACCACGCAAGGGAUGGUGUCAAAUUCGGCGAAACCUAAGCGCCCGCCCGGGCGUAUGGCAACGCUGAGCCAAGCUUCGGCGCCUGCGCCGAUGUAGGUGUAGAGACUAGACGGCACCCACCUAAGGCUAACGGUAUGGUGAAGGCAUAGUCUAGGGAGGGGCGAAAGUCACACAAACCGG [C82U A111U A145U C150G C169U U176G] was 0.00616.
